Results published in paper PMC4686757.

B1: canonical symmetrical E2F site GCGCGCC (dsDNA)
DNA 1: CTTTTGCGCGCCAAAG
DNA 2: CTTTGGCGCGCAAAAG
B2: E2F8 SELEX-preferred site GGCGGG (dsDNA)
DNA 1: TTTTTGGCGGGAAAA
DNA 2: TTTTCCCGCCAAAAA

How the values were obtained:
E2F8 DBD1-DBD2 [1] = target: T1, E2F8 DBD1-DBD2 (human, UniProt A0AVK6 110-350); assay: ITC; no binding detected under same conditions, 20 C; ITC: 20 mM HEPES pH 7.5, 150 mM NaCl, 5% glycerol, TCEP (printed 0.5 M), 20 C; 0.1 mM protein into 0.012-0.016 mM DNA
T1 sequence (A0AVK6 110-350): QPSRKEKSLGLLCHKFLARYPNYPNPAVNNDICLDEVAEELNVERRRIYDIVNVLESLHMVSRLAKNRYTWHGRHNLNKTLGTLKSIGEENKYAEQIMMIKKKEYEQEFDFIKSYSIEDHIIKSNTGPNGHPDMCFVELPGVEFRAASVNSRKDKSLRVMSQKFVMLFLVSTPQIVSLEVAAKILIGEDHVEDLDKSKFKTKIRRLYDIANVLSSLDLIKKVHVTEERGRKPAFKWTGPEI

E2F8 DBD1-DBD2 [2] = target: T1, E2F8 DBD1-DBD2; assay: ITC; 20 C; ITC: 20 mM HEPES pH 7.5, 150 mM NaCl, 5% glycerol, TCEP (printed 0.5 M), 20 C; 0.1 mM protein into 0.012-0.016 mM DNA

Row | Binder | binding result (E2F8 DBD1-DBD2 [1]) | Kd (E2F8 DBD1-DBD2 [2]) [nM]
1 | B1 | no binding | –
2 | B2 | – | ~260
